In patent publication US8703918:

Target: prostate specific membrane antigen (PSMA) (human) (UniProt Q04609)
Experiment: FACS on LNCaP (PSMA+) cells; negative control, background signal

Sequence of prostate specific membrane antigen (PSMA) (human) (Q04609 whole entry): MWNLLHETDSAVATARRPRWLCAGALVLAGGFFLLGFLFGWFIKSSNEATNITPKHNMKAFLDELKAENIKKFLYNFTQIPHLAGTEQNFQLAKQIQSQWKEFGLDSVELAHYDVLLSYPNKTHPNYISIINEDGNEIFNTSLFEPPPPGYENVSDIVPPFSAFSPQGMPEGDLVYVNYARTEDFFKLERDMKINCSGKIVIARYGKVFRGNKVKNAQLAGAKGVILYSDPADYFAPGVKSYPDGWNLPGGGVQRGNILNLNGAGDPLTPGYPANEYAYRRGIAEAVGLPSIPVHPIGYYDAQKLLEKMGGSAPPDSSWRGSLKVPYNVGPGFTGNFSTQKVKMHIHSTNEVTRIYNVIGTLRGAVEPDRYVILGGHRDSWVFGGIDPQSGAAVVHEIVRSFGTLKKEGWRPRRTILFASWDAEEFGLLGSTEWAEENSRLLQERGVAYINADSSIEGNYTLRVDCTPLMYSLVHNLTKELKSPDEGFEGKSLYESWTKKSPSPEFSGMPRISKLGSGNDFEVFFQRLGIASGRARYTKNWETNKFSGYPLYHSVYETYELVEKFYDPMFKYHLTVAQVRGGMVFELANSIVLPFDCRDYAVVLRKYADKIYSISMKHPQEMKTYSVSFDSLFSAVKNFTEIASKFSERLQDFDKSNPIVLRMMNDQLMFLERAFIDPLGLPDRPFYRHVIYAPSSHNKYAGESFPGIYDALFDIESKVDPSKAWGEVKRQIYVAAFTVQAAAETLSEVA

- MFI: 161 MFI
Substance: avidin-FITC
